Measured values taken from publication PMC3903133, “Single-molecule analysis reveals self assembly and nanoscale segregation of two distinct cavin subcomplexes on caveolae” (eLife, 2014).
“And” between values parts separate entries of the source, which are not always exact repeats. Equal entries are not always repeated.

B3: cavin2-GFP (natural protein, UniProt O95810 1-425, looked up)
chain: MGEDAAQAEKFQHPGSDMRQEKPSSPSPMPSSTPSPSLNLGNTEEAIRDNSQVNAVTVLTLLDKLVNMLDAVQENQHKMEQRQISLEGSVKGIQNDLTKLSKYQASTSNTVSKLLEKSRKVSAHTRAVKERMDRQCAQVKRLENNHAQLLRRNHFKVLIFQEENEIPASVFVKQPVSGAVEGKEELPDENKSLEETLHTVDLSSDDDLPHDEEALEDSAEEKVEESRAEKIKRSSLKKVDSLKKAFSRQNIEKKMNKLGTKIVSVERREKIKKSLTSNHQKISSGKSSPFKVSPLTFGRKKVREGESHAENETKSEDLPSSEQMPNDQEEESFAEGHSEASLASALVEGEIAEEAAEKATSRGSNSGMDSNIDLTIVEDEEEESVALEQAQKVRYEGSYALTSEEAERSDGDPVQPAVLQVHQTS
notes: cavin2 / SDPR (serum deprivation response protein); construct cloned as described in Hill et al. (2008); The only hint on species is the keyword 'human'; the cDNA may be of mouse (surmise); also called SDPR; serum deprivation response protein; source: MCF-7 or MDCK cells, transfected (Lipofectamine 2000), in supernatant of mechanically lysed cells
B4: cavin1-GFP (natural protein, UniProt Q6NZI2 1-390, looked up)
chain: MEDPTLYIVERPLPGYPDAEAPEPSSAGAQAAEEPSGAGSEELIKSDQVNGVLVLSLLDKIIGAVDQIQLTQAQLEERQAEMEGAVQSIQGELSKLGKAHATTSNTVSKLLEKVRKVSVNVKTVRGSLERQAGQIKKLEVNEAELLRRRNFKVMIYQDEVKLPAKLSISKSLKESEALPEKEGEELGEGERPEEDAAALELSSDEAVEVEEVIEESRAERIKRSGLRRVDDFKKAFSKEKMEKTKVRTRENLEKTRLKTKENLEKTRHTLEKRMNKLGTRLVPAERREKLKTSRDKLRKSFTPDHVVYARSKTAVYKVPPFTFHVKKIREGQVEVLKATEMVEVGADDDEGGAERGEAGDLRRGSSPDVHALLEITEESDAVLVDKSDSD
notes: cavin1 / polymerase transcript release factor (PTRF); construct cloned as described in Hill et al. (2008); The only hint on species is the keyword 'human'; the cDNA may be of mouse (surmise); also called polymerase transcript release factor; PTRF; source: MCF-7 or MDCK cells, transfected (Lipofectamine 2000), in supernatant of mechanically lysed cells

Experiments:
cavin1-GFP (cell-free) = target: T1, cavin1-GFP (cell-free) (UniProt Q6NZI2 1-390); experiment: single-molecule two-colour fluorescence coincidence; co-expression in the Leishmania tarentolae cell-free system at DNA ratios from 100% GFP to 100% Cherry; >1000 bursts for each ratio; conditions: partners not purified
T1 construct: cavin1 / polymerase transcript release factor (PTRF); ORF in a Gateway DNA template for cell-free expression; also called PTRF; source: Leishmania tarentolae cell-free system (LTE), in vitro translated, not purified; not shown: eGFP, N-terminal, kept
T1 sequence (looked up): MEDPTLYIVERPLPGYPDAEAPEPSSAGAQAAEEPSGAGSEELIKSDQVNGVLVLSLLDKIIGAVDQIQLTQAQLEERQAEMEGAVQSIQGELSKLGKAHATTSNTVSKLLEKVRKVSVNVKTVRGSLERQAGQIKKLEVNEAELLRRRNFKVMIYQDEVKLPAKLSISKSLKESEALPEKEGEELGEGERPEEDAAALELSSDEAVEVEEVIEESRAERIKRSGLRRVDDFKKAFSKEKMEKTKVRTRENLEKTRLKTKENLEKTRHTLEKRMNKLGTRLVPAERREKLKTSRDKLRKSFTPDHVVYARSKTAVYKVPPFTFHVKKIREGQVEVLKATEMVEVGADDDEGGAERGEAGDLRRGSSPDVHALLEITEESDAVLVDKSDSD

[1] = target: the molecule itself; experiment: single-molecule brightness analysis; burst brightness of fluorescent cavins in supernatant of MCF-7 cells without CAV1, calibrated on monomeric GFP (maximum 100 photons)
CAV1 untagged = target: T2, CAV1 untagged (UniProt Q03135 1-178); experiment: single-molecule brightness analysis; burst brightness in supernatant of MCF-7 cells transfected with CAV1-GFP, or with cavin1-GFP and untagged CAV1; calibrated on a single GFP; conditions: partners not purified
T2 construct: caveolin-1 (CAV1), untagged; construct cloned as described in Hill et al. (2008); also called caveolin-1; source: MCF-7 cells, transfected, in post nuclear supernatant
T2 sequence (looked up): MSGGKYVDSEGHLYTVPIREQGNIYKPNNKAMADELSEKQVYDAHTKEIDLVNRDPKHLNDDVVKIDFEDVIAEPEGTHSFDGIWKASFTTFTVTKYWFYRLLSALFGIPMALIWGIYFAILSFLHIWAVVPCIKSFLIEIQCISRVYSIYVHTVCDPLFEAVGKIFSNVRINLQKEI

[2] = target: the molecule itself; experiment: as above
CAV1-GFP = target: T3, CAV1-GFP (UniProt Q03135 1-178); experiment: single-molecule two-colour fluorescence coincidence; MCF-7 cells expressing CAV1-GFP and cavin1-Cherry; caveolae in the post nuclear supernatant; conditions: partners not purified
T3 construct: caveolin-1 (CAV1); construct cloned as described in Hill et al. (2008); membrane protein, seen on caveolae in the cell extract; also called caveolin-1; Caveolin-1; source: MCF-7 cells, transfected, in post nuclear supernatant
T3 sequence (looked up): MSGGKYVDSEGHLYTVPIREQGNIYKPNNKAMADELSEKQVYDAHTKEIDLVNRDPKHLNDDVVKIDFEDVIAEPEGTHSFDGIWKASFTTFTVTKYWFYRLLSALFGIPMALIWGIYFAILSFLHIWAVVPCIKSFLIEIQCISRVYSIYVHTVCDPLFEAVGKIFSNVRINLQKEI

cavin1-GFP = target: B4; experiment: single-molecule brightness analysis; burst brightness of oligomers in the cytoplasmic fraction of MDCK cells after hypo-osmotic treatment (20 min); conditions: partners not purified
cavin2-GFP = target: B3; experiment: single-molecule two-colour fluorescence coincidence; MDCK cells (endogenous cavin1 and CAV1) co-transfected; cytoplasmic fraction after hypo-osmotic treatment (DMEM 1:10 in water, 20 min, 37°C); conditions: partners not purified
cavin3-GFP = target: T4, cavin3-GFP (UniProt Q969G5 1-261); experiment: as above; conditions: partners not purified
T4 construct: construct cloned as described in Hill et al. (2008); The only hint on species is the keyword 'human'; the cDNA may be of mouse (surmise); also called SRBC; source: MCF-7, MDCK or HeLa cells, transfected (Lipofectamine 2000), in supernatant of mechanically lysed cells
T4 sequence (looked up): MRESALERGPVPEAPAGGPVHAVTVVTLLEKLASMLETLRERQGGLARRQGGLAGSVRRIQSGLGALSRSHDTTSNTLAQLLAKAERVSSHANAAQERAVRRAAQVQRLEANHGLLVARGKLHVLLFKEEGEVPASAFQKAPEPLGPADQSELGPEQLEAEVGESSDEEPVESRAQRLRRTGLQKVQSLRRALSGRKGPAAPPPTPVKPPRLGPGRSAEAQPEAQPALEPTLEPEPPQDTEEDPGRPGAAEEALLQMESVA

B1: cavin3-Cherry-myc (cell-free) (natural protein, UniProt Q969G5 1-261, looked up)
chain: MRESALERGPVPEAPAGGPVHAVTVVTLLEKLASMLETLRERQGGLARRQGGLAGSVRRIQSGLGALSRSHDTTSNTLAQLLAKAERVSSHANAAQERAVRRAAQVQRLEANHGLLVARGKLHVLLFKEEGEVPASAFQKAPEPLGPADQSELGPEQLEAEVGESSDEEPVESRAQRLRRTGLQKVQSLRRALSGRKGPAAPPPTPVKPPRLGPGRSAEAQPEAQPALEPTLEPEPPQDTEEDPGRPGAAEEALLQMESVA
notes: cavin3 / SRBC; ORF in a Gateway DNA template for cell-free expression; also called SRBC; cavin3-myc; source: Leishmania tarentolae cell-free system (LTE), in vitro translated, not purified; not shown: mCherry, C-terminal, kept; Myc, C-terminal, kept
Question: For B1, which “stoichiometry N” value (cavin1-GFP (cell-free)) is on record?
Answer: 3 cavin1 per cavin3

B2: cavin3-Cherry (natural protein, UniProt Q969G5 1-261, looked up)
chain: MRESALERGPVPEAPAGGPVHAVTVVTLLEKLASMLETLRERQGGLARRQGGLAGSVRRIQSGLGALSRSHDTTSNTLAQLLAKAERVSSHANAAQERAVRRAAQVQRLEANHGLLVARGKLHVLLFKEEGEVPASAFQKAPEPLGPADQSELGPEQLEAEVGESSDEEPVESRAQRLRRTGLQKVQSLRRALSGRKGPAAPPPTPVKPPRLGPGRSAEAQPEAQPALEPTLEPEPPQDTEEDPGRPGAAEEALLQMESVA
notes: construct cloned as described in Hill et al. (2008); The only hint on species is the keyword 'human'; the cDNA may be of mouse (surmise); also called SRBC; C3-C; source: MCF-7 or MDCK cells, transfected (Lipofectamine 2000), in supernatant of mechanically lysed cells
Question: B2 was tested. Which “stoichiometry N” value [1] did it give?
Answer: ~50 monomers

Question: Which “stoichiometry N” value [1] does the source give for B3 here?
Answer: ~50 monomers

Question: Which “stoichiometry N” value [1] does the source give for B4 here?
Answer: 50 ± 5 proteins per complex

Question: And the “brightness of CAV1-GFP over cavin1-GFP” value (CAV1 untagged)?
Answer: 3.5 fold

Question: What about the “stoichiometry N” value [2] of the same binder?
Answer: 40 to 50 cavin1 per caveola

B5: cavin1-Cherry (natural protein, UniProt Q6NZI2 1-390, looked up)
chain: MEDPTLYIVERPLPGYPDAEAPEPSSAGAQAAEEPSGAGSEELIKSDQVNGVLVLSLLDKIIGAVDQIQLTQAQLEERQAEMEGAVQSIQGELSKLGKAHATTSNTVSKLLEKVRKVSVNVKTVRGSLERQAGQIKKLEVNEAELLRRRNFKVMIYQDEVKLPAKLSISKSLKESEALPEKEGEELGEGERPEEDAAALELSSDEAVEVEEVIEESRAERIKRSGLRRVDDFKKAFSKEKMEKTKVRTRENLEKTRLKTKENLEKTRHTLEKRMNKLGTRLVPAERREKLKTSRDKLRKSFTPDHVVYARSKTAVYKVPPFTFHVKKIREGQVEVLKATEMVEVGADDDEGGAERGEAGDLRRGSSPDVHALLEITEESDAVLVDKSDSD
notes: cavin1 / polymerase transcript release factor (PTRF); construct cloned as described in Hill et al. (2008); The only hint on species is the keyword 'human'; the cDNA may be of mouse (surmise); also called PTRF; source: MCF-7 or MDCK cells, transfected (Lipofectamine 2000), in supernatant of mechanically lysed cells
Question: Which results are given for B5?
Answer: stoichiometry N (CAV1-GFP): 3 CAV1 per cavin1 and 4 CAV1 per cavin1; stoichiometry N (cavin1-GFP): 9 cavin1 proteins per oligomer and 8 cavin1 proteins per oligomer to 10 cavin1 proteins per oligomer (2×); stoichiometry N (cavin2-GFP): 2 cavin1 per cavin2; stoichiometry N (cavin3-GFP): ~2 cavin1 per cavin3
